# According to patent US20170305997A1 (Janssen / Centocor, published 2017):
# Experiments:
# [1] = molecular target: Recombinant human c-Met Fc chimera (human) (UniProt P08581); assay: SPR, serine scan in the ECB15 context
# human c-Met on cells [2] = molecular target: T1, human c-Met on cells (human, UniProt P08581 25-1390); assay: cell-based or functional assay
# human c-Met on cells [3] = molecular target: T1, human c-Met on cells; assay: binding to NCI-H441 cells, anti-His fluorescence
# Experimental: Purified FN3 domains (50 μL/well; 0 to 1000 nM) were added to the cells for 1 hour at 4° C. in duplicate plates. […] Cells were incubated with biotinylated-anti HIS antibody (diluted 1:160 in FACS stain buffer, 50 μL/well, R&D Systems, cat # BAM050) for 30 minutes at 4° C. […] Cells were washed three times with FACS stain buffer (150 μL/well) and left in FACS stain buffer (50 μL/well).
binder,measurement,setting,value
"ECB15 (designed binder, not shown: small tags and cut ends) MLPAPKNLVVSEVTEDSARLSWDDPWAFYESFLIQYQESEKVGEAIVLTVPGSERSYDLTGLKPGTEYTVSIYGVHNVYKDTNMRGLPLSAIFTTAPAPAPAPAPLPAPKNLVVSRVTEDSARLSWTAPDAAFDSFWIRYFEFLGSGEAIVLTVPGSERSYDLTGLKPGTEYVVNIMGVKGGKISPPLSAIFTT",Fold Change of KD against the parent,[1],1 fold
same,Kd,[1],0.4 nM
same,koff,[1],0.000133 s⁻¹
same,kon,[1],351000 M⁻¹ s⁻¹
A3 K78S (designed binder) LPAPKNLVVSEVTEDSARLSWDDPWAFYESFLIQYQESEKVGEAIVLTVPGSERSYDLTGLKPGTEYTVSIYGVHNVYKDTNMRGLPLSAIFTTAPAPAPAPAPLPAPKNLVVSRVTEDSARLSWTAPDAAFDSFWIRYFEFLGSGEAIVLTVPGSERSYDLTGLKPGTEYVVNIMGVKGGSISPPLSAIFTT,Fold Change of KD against the parent,[1],0.75 fold
A3 G40S (designed binder) LPAPKNLVVSEVTEDSARLSWDDPWAFYESFLIQYQESEKVGEAIVLTVPGSERSYDLTGLKPGTEYTVSIYGVHNVYKDTNMRGLPLSAIFTTAPAPAPAPAPLPAPKNLVVSRVTEDSARLSWTAPDAAFDSFWIRYFEFLSSGEAIVLTVPGSERSYDLTGLKPGTEYVVNIMGVKGGKISPPLSAIFTT,Fold Change of KD against the parent,[1],4.25 fold
A3 L39S (designed binder) LPAPKNLVVSEVTEDSARLSWDDPWAFYESFLIQYQESEKVGEAIVLTVPGSERSYDLTGLKPGTEYTVSIYGVHNVYKDTNMRGLPLSAIFTTAPAPAPAPAPLPAPKNLVVSRVTEDSARLSWTAPDAAFDSFWIRYFEFSGSGEAIVLTVPGSERSYDLTGLKPGTEYVVNIMGVKGGKISPPLSAIFTT,Fold Change of KD against the parent,[1],6.75 fold
A3 V68S (designed binder) LPAPKNLVVSEVTEDSARLSWDDPWAFYESFLIQYQESEKVGEAIVLTVPGSERSYDLTGLKPGTEYTVSIYGVHNVYKDTNMRGLPLSAIFTTAPAPAPAPAPLPAPKNLVVSRVTEDSARLSWTAPDAAFDSFWIRYFEFLGSGEAIVLTVPGSERSYDLTGLKPGTEYSVNIMGVKGGKISPPLSAIFTT,Fold Change of KD against the parent,[1],9 fold
A3 N70S (designed binder) LPAPKNLVVSEVTEDSARLSWDDPWAFYESFLIQYQESEKVGEAIVLTVPGSERSYDLTGLKPGTEYTVSIYGVHNVYKDTNMRGLPLSAIFTTAPAPAPAPAPLPAPKNLVVSRVTEDSARLSWTAPDAAFDSFWIRYFEFLGSGEAIVLTVPGSERSYDLTGLKPGTEYVVSIMGVKGGKISPPLSAIFTT,Fold Change of KD against the parent,[1],14.8 fold
A3 P81S (designed binder) LPAPKNLVVSEVTEDSARLSWDDPWAFYESFLIQYQESEKVGEAIVLTVPGSERSYDLTGLKPGTEYTVSIYGVHNVYKDTNMRGLPLSAIFTTAPAPAPAPAPLPAPKNLVVSRVTEDSARLSWTAPDAAFDSFWIRYFEFLGSGEAIVLTVPGSERSYDLTGLKPGTEYVVNIMGVKGGKISSPLSAIFTT,Fold Change of KD against the parent,[1],4.25 fold
A3 F36S (designed binder) LPAPKNLVVSEVTEDSARLSWDDPWAFYESFLIQYQESEKVGEAIVLTVPGSERSYDLTGLKPGTEYTVSIYGVHNVYKDTNMRGLPLSAIFTTAPAPAPAPAPLPAPKNLVVSRVTEDSARLSWTAPDAAFDSFWIRYSEFLGSGEAIVLTVPGSERSYDLTGLKPGTEYVVNIMGVKGGKISPPLSAIFTT,Fold Change of KD against the parent,[1],68 fold
A3 W32S (designed binder) LPAPKNLVVSEVTEDSARLSWDDPWAFYESFLIQYQESEKVGEAIVLTVPGSERSYDLTGLKPGTEYTVSIYGVHNVYKDTNMRGLPLSAIFTTAPAPAPAPAPLPAPKNLVVSRVTEDSARLSWTAPDAAFDSFSIRYFEFLGSGEAIVLTVPGSERSYDLTGLKPGTEYVVNIMGVKGGKISPPLSAIFTT,Fold Change of KD against the parent,[1],74.5 fold
P114AR7P95-D3 (designed binder) LPAPKNLVVSRVTEDSARLSWTAPDAAFDSFWIRYFEFLGSGEAIVLTVPGSERSYDLTGLKPGTEYVVNIMGVKGGSISYPLSAIFTTHHHHHH,Inhibition of Proliferation of U87-MG cells (IC50),human c-Met on cells [2],1.7 nM
same,pMet inhibition in H441 cells (IC50),human c-Met on cells [2],4.6 nM
P114AR7P92-F3 (designed binder) LPAPKNLVVSRVTEDSARLSWTAPDAAFDSFWIRYFEFLGSGEAIVLTVPGSERSYDLTGLKPGTEYIVNIMGVKGGSISHPLSAIFTTHHHHHH,Inhibition of Proliferation of U87-MG cells (IC50),human c-Met on cells [2],2.7 nM
same,pMet inhibition in H441 cells (IC50),human c-Met on cells [2],8.3 nM
P114AR7P92-F6 (designed binder) LPAPKNLVVSRVTEDSARLSWTAPDAAFDSFWIRYFEFLGSGEAIVLTVPGSERSYDLTGLKPGTEYVVNILGVKGGGLSVPLSAIFTTHHHHHH,EC50,human c-Met on cells [3],4.9 nM
same,Inhibition of Proliferation of U87-MG cells (IC50),human c-Met on cells [2],350 nM
same,pMet inhibition in H441 cells (IC50),human c-Met on cells [2],165 nM
P114AR7P92-G8 (designed binder) LPAPKNLVVSRVTEDSARLSWTAPDAAFDSFVIRYFEFLGSGEAIVLTVPGSERSYDLTGLKPGTEYVVQILGVKGGYISIPLSAIFTTHHHHHH,EC50,human c-Met on cells [3],5.9 nM
same,Inhibition of Proliferation of U87-MG cells (IC50),human c-Met on cells [2],124 nM
same,pMet inhibition in H441 cells (IC50),human c-Met on cells [2],155 nM
P114AR7P92-H5 (designed binder) LPAPKNLVVSRVTEDSARLSWTAPDAAFDSFWIRYLEFLLGGEAIVLTVPGSERSYDLTGLKPGTEYVVQIMGVKGGTVSPPLSAIFTTHHHHHH,EC50,human c-Met on cells [3],22 nM
same,Inhibition of Proliferation of U87-MG cells (IC50),human c-Met on cells [2],672 nM
same,pMet inhibition in H441 cells (IC50),human c-Met on cells [2],766 nM
P114AR7P93-D11 (designed binder) LPAPKNLVVSRVTEDSARLSWTAPDAAFDSFWIRYFEFLGSGEAIVLTVPGSERSYDLTGLKPGTEYVVGINGVKGGYISYPLSAIFTTHHHHHH,EC50,human c-Met on cells [3],2.3 nM
same,Inhibition of Proliferation of U87-MG cells (IC50),human c-Met on cells [2],14.4 nM
same,pMet inhibition in H441 cells (IC50),human c-Met on cells [2],16 nM
P114AR7P93-G8 (designed binder) LPAPKNLVVSRVTEDSARLSWTAPDAAFDSFWIRYFEFLGSGEAIVLTVPGSERSYDLTDLKPGTEYGVTINGVKGGRVSTPLSAIFTTHHHHHH,EC50,human c-Met on cells [3],3.8 nM
same,Inhibition of Proliferation of U87-MG cells (IC50),human c-Met on cells [2],104 nM
same,pMet inhibition in H441 cells (IC50),human c-Met on cells [2],460 nM
P114AR7P93-H9 (designed binder) LPAPKNLVVSRVTEDSARLSWTAPDAAFDSFWIRYFEFLGSGEAIVLTVPGSERSYDLTGLKPGTEYVVQIIGVKGGHISLPLSAIFTTHHHHHH,EC50,human c-Met on cells [3],12.9 nM
same,Inhibition of Proliferation of U87-MG cells (IC50),human c-Met on cells [2],270 nM
same,pMet inhibition in H441 cells (IC50),human c-Met on cells [2],288 nM
"P114AR7P94-A3 (designed binder, also called P114AR7P95-A3; P114ARP94-A3) LPAPKNLVVSRVTEDSARLSWTAPDAAFDSFWIRYFEFLGSGEAIVLTVPGSERSYDLTGLKPGTEYVVNIMGVKGGKISPPLSAIFTTHHHHHH",EC50,human c-Met on cells [3],1.4 nM
same,Inhibition of Proliferation of U87-MG cells (IC50),human c-Met on cells [2],9.3 nM
same,pMet inhibition in H441 cells (IC50),human c-Met on cells [2],5 nM
P114AR7P94-E5 (designed binder) LPAPKNLVVSRVTEDSARLSWTAPDAAFDSFWIRYFEFLGSGEAIVLTVPGSERSYDLTGLKPGTEYAVNIMGVKGGRVSVPLSAIFTTHHHHHH,EC50,human c-Met on cells [3],3.4 nM
same,Inhibition of Proliferation of U87-MG cells (IC50),human c-Met on cells [2],196 nM
same,pMet inhibition in H441 cells (IC50),human c-Met on cells [2],124 nM
P114AR7P95-D4 (designed binder) LPAPKNLVVSRVTEDSARLSWTAPDAAFDSFWIRYFEFLGSGEAIVLTVPGSERSYDLTGLKPGTEYVVQILGVKGGYISIPLSAIFTTHHHHHH,EC50,human c-Met on cells [3],1.4 nM
same,Inhibition of Proliferation of U87-MG cells (IC50),human c-Met on cells [2],19.4 nM
same,pMet inhibition in H441 cells (IC50),human c-Met on cells [2],19.5 nM
P114AR7P95-E3 (designed binder) LPAPKNLVVSRVTEDSARLSWTAPDAAFDSFWIRYFEFLGSGEAIVLTVPGSERSYDLTGLKPGTEYVVQIMGVKGGTVSPPLSAIFTTHHHHHH,EC50,human c-Met on cells [3],3.2 nM
same,Inhibition of Proliferation of U87-MG cells (IC50),human c-Met on cells [2],209 nM
same,pMet inhibition in H441 cells (IC50),human c-Met on cells [2],205 nM
P114AR7P95-F10 (designed binder) LPAPKNLVVSRVTEDSARLSWTAPDAAFDSFWIRYFEFTTAGEAIVLTVPGSERSYDLTGLKPGTEYVVNIMGVKGGSISPPLSAIFTTHHHHHH,EC50,human c-Met on cells [3],4.4 nM
same,Inhibition of Proliferation of U87-MG cells (IC50),human c-Met on cells [2],130 nM
same,pMet inhibition in H441 cells (IC50),human c-Met on cells [2],188 nM
P114AR7P95-G7 (designed binder) LPAPKNLVVSRVTEDSARLSWTAPDAAFDSFWIRYFELLSTGEAIVLTVPGSERSYDLTGLKPGTEYVVNIMGVKGGSISPPLSAIFTTHHHHHH,EC50,human c-Met on cells [3],11.3 nM
same,Inhibition of Proliferation of U87-MG cells (IC50),human c-Met on cells [2],692 nM
same,pMet inhibition in H441 cells (IC50),human c-Met on cells [2],659 nM
P114AR7P95-H8 (designed binder) LPAPKNLVVSRVTEDSARLSWTAPDAAFDSFWIRYFEFVSKGEAIVLTVPGSERSYDLTGLKPGTEYVVNIMGVKGGSISPPLSAIFTTHHHHHH,EC50,human c-Met on cells [3],4.1 nM
same,Inhibition of Proliferation of U87-MG cells (IC50),human c-Met on cells [2],281 nM
same,pMet inhibition in H441 cells (IC50),human c-Met on cells [2],210 nM
P114AR5P75-E9 (designed binder) LPAPKNLVVSRVTEDSARLSWTAPDAAFDSFFIRYDEFLRSGEAIVLTVPGSERSYDLTGLKPGTEYWVTILGVKGGLVSTPLSAIFTTHHHHHH,Inhibition of Proliferation of U87-MG cells (IC50),human c-Met on cells [2],1190 nM
same,pMet inhibition in H441 cells (IC50),human c-Met on cells [2],1420 nM
P114AR7P95-B9 (designed binder) LPAPKNLVVSRVTEDSARLSWTAPDAAFDSFWIRYFEFLGSGEAIVLTVPGSERSYDLTGLKPGTEYVVQILGVKGGSISVPLSAIFTTHHHHHH,Inhibition of Proliferation of U87-MG cells (IC50),human c-Met on cells [2],17.4 nM
same,pMet inhibition in H441 cells (IC50),human c-Met on cells [2],9.8 nM
